Data reported in paper PMC6468627.

Columns and labels:
[1] = target: T1, EpCAM (native, on primary lung cancer cells) (Homo sapiens (patient NSCLC tumor cells)) (UniProt P16422); experiment: competition (flow cytometry); conditions: DPBS, 25 °C, 30 min; cells (3×10^5) pre-incubated with 1 ng/uL salmon sperm DNA; DNA pools/library heated to 95 °C 5 min then on ice 10 min; pH not stated
T1 sequence: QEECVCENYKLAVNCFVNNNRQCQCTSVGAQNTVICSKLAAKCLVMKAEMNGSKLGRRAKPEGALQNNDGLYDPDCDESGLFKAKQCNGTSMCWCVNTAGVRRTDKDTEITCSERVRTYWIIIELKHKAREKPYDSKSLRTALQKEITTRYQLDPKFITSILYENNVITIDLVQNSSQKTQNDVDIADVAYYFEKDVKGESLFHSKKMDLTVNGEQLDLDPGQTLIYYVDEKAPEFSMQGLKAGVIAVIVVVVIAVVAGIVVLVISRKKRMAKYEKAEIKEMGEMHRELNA

[2] = target: T1, EpCAM (native, on primary lung cancer cells) (Homo sapiens (patient NSCLC tumor cells)); experiment: flow cytometry (cell binding); conditions: apparent Kd on whole primary lung cancer cells; 1-300 nM aptamer; DPBS, 25 °C, 30 min; cells (3×10^5) pre-incubated with 1 ng/uL salmon sperm DNA; DNA pools/library heated to 95 °C 5 min then on ice 10 min; pH not stated

Row | Sequence | binding signal (% of cells releasing aptamer) [1] | Kd [2] [nM] | binding signal (% displaced by antibody) [1]
1 | CTCCTCTGACTGTAACCACGGTGCGCGTACCACCATGTGTACACACTGCATGTTTGGTTAGCATAGGTAGTCCAGAAGCC [EPCAM-APT-02 (ECM_02)] | 18 | 15 | 
2 | CTCCTCTGACTGTAACCACGACACGCACAAATGTCAGTGTACCGCACTCGCACATTCTTAGCATAGGTAGTCCAGAAGCC [EPCAM-APT-01 (ECM_01)] |  | 25 | 15
